In patent US12606852B2, “Conversion of lignin-derived monomers to muconate by engineered pseudomonas” (Alliance for Sustainable Energy, LLC, priority 2021, dated 2026) one finds Km data, which are given here for two proteins.

Assay in all cases: purified protein, by the assay type
Substrate in data set [1]: NC(=O)C1=CN([C@@H]2O[C@H](COP(=O)(O)OP(=O)(O)OC[C@H]3O[C@@H](n4cnc5c(N)ncnc54)[C@H](OP(=O)(O)O)[C@@H]3O)[C@@H](O)[C@H]2O)C=CC1
Substrate in data set [2]: O=C(O)c1ccc(O)cc1
Substrate in data set [3]: NC(=O)C1=CN([C@@H]2O[C@H](COP(=O)(O)OP(=O)(O)OC[C@H]3O[C@@H](n4cnc5c(N)ncnc54)[C@H](O)[C@@H]3O)[C@@H](O)[C@H]2O)C=CC1
As to conditions: pH 8.0; 25.0 °C.

Where “and” joins values, the source holds several entries; their conditions need not be identical. Equal values may be shown once.

B1: Pseudomonas putida KT2440 PobA (para-hydroxybenzoate-3-hydroxylase, PHBH), native, PP_3537, tagless, pobA_EC gene SEQ ID NO: 1 (Pseudomonas putida KT2440) (protein)
chain: MKTQVAIIGAGPSGLLLGQLLHKAGIDNIIVERQTAEYVLGRIRAGVLEQGTVDLLREAGVAERMDREGLVHEGVELLVGGRRQRLDLKALTGGKTVMVYGQTEVTRDLMQAREASGAPIIYSAANVQPHELKGEKPYLTFEKDGRVQRIDCDYIAGCDGFHGISRQSIPEGVLKQYERVYPFGWLGLLSDTPPVNHELIYAHHERGFALCSQRSQTRSRYYLQVPLQDRVEEWSDERFWDELKARLPAEVAADLVTGPALEKSIAPLRSLVVEPMQYGHLFLVGDAAHIVPPTGAKGLNLAASDVNYLYRILVKVYHEGRVDLLAQYSPLALRRVWKGERFSWFMTQLLHDFGSHKDAWDQKMQEADREYFLTSPAGLVNIAENYVGLPFEEVA
In the case of B1, the Km in data set [1] (other: NADPH varied, NADPH detection (340 nm), air-saturated, 200 μM 4-hydroxybenzoate, pH 8, 25° C.) came to 43 ± 3 µM; in data set [1] (other: NADPH varied, O2 detection (oxygraph), air-saturated, 200 μM 4-hydroxybenzoate, pH 8, 25° C.), 66 ± 6 µM; in data set [2] (other: NADPH as reducing equivalent, NADPH detection (340 nm), air-saturated, 300 μM NAD(P)H, pH 8, 25° C.) it was 18 ± 2 µM; in data set [2] (other: NADPH as reducing equivalent, O2 detection (oxygraph), air-saturated, 300 μM NAD(P)H, pH 8, 25° C.), 21 ± 1 µM.

B2: Paenibacillus sp. JJ-1b PraI (para-hydroxybenzoate-3-hydroxylase, PHBH), BAH79107, tagless, praI_EC gene SEQ ID NO: 3 (Paenibacillus sp.) (protein)
chain: RTQVGIIGAGPAGLLLSHLLYLQGIESIIIENRTREEIEGTIRAGVLEQGTVDLMNQMGVGARMMKEGHFHEGFELRFNGRGHRINVHELTGGKYVTVYAQHEVIKDLVAARLQTGGQIHFNVGDVSLHDVDTSSPKIRFRPNKDGELQEIECDFIAGCDGFRGPSRPAIPQSVRKEYQKVYPFSWLGILVEAPPSAHELIYANHERGFALVSTRSPQIQRLYLQVDAQDHIDNWSDDRIWSELHARLETRDGFKLLEGPIFQKGIVSMRSFVCDPMQHGRLFLAGDAAHIVPPTGAKGLNLAAADVQVLARGLEAYYKAGKMEILNRCTEICLRRIWKAERFSWFMTTMLHRDQGHTPFERGIQLAELDYVTSSRAASTSLAENYIGLPMEF
Consider B2, for which the Km in data set [1] (pH 8.0, 25.0 °C) is 27 ± 1 µM and 33 ± 2 µM; in data set [2] (pH 8.0, 25.0 °C), 16 ± 1 µM and 19 ± 2 µM and 18 ± 1 µM; in data set [3] it was 49 ± 3 µM and 46 ± 4 µM.
